Data taken from patent publication US20040152160A1 (UNIVERSITY OF SOUTH FLORIDA, published 2004).

Biological target: α7-2-nAChR (homomeric receptor of the rat α7-2 splice variant subunit expressed in Xenopus oocytes) (rat, UniProt Q05941 28-502)
Assay: summary statement; no assay given at this place

B1: α-bungarotoxin (ligand)
chain: IVCHTTATSPISAVTCPPGENLCYRKMWCDAFCSSRGKVVELGCAATCPSKKPYEEVTCCSTDKCNPHPKQRPG
  binding result: binds
